Columns and labels:
Test in all cases: cell_activity
[1] = system: ZFN 56317 (synthetic); settings: pair with 56316; K562
[2] = system: ZFN 56643 (synthetic); settings: pair with 56644; Neuro2a
[3] = system: ZFN 56316 (synthetic); settings: pair with 56317; K562
[4] = system: ZFN 56445 (synthetic); settings: pair with 56444; K562
[5] = system: ZFN 56255 (synthetic); settings: pair with 56254; K562
[6] = system: ZFN 56127 (synthetic); settings: pair with 56126; K562
[7] = system: ZFN 56526 (synthetic); settings: 16.8% with 56527; K562 deltaF508 line
[8] = system: ZFN 56444 (synthetic); settings: pair with 56445; K562; F6 printed QSGMLAR but cited as SEQ 5 (QSGNLAR)
[9] = system: ZFN 56254 (synthetic); settings: pair with 56255; K562
[10] = system: ZFN 56691 (synthetic); settings: pair with 56690; Neuro2a; Table 2 site differs slightly from listing
[11] = system: ZFN 56527 (synthetic); settings: pair with 56526; K562 deltaF508 line
[12] = system: ZFN 56529 (synthetic); settings: pair with 56526; K562 deltaF508 line
[13] = system: ZFN 56644 (synthetic); settings: pair with 56643; Neuro2a
[14] = system: ZFN 56126 (synthetic); settings: pair with 56127; K562
[15] = system: ZFN 56690 (synthetic); settings: pair with 56691; Neuro2a

## TTTATCCTTTTGCTGACCATGTTTTGTT (double strand) [CFTR int1 56317 site]
[1]
  activity: 52 % indels

## GCAATGCTTCATGGGAAAGTACAGTGGC (double strand) [Cftr int8 56643 site]
[2]
  activity: 49.2 % indels

## GAAAAGACTATTGAGGGACTGGTGTAGA (double strand) [CFTR int1 56316 site]
[3]
  activity: 52 % indels

## GTGAGAAGGCAGAGAGAAGAATATTTAT (double strand) [CFTR int3 56445 site]
[4]
  activity: 32.7 % indels

## TAGGGAAGGTAGGAGCATAAGGAAGAAT (double strand) [CFTR int8 56255 site]
[5]
  activity: 50.1 % indels

## ATGGAAACTGAGCTGCAGGTGTGTGATT (double strand) [CFTR int7 56127 site]
[6]
  activity: 55.4 % indels

## GGAAACACCAATGATATTTTCTTTAATG (double strand) [CFTR dF508 56526 site]
[7]
  activity: 19.6 % indels

## GGGAAGAAGCAGCTGAAATGTGTAGGTG (double strand) [CFTR int3 56444 site]
[8]
  activity: 32.7 % indels

## ATTAAGTCCACGCATACTGAAGTCTTGG (double strand) [CFTR int8 56254 site]
[9]
  activity: 50.1 % indels

## GTCAACAGGTGTACTGCAGGCATGCTAG (double strand) [Cftr int1 56691 site]
[10]
  activity: 67.2 % indels

## ATGATGAATATAGATACAGAAGCGTCAT (double strand) [CFTR dF508 56529/56527 site]
[11]
  activity: 16.8 % indels
[12]
  activity: 19.6 % indels

## TGGAAGCTGAAGTTCTTGGAACATAGCA (double strand) [Cftr int8 56644 site]
[13]
  activity: 49.2 % indels

## GTACACTGGACTCAGCAGCCTGAATTCC (double strand) [CFTR int7 56126 site]
[14]
  activity: 55.4 % indels

## CCCTGGGTTATGCTGTGATCTTGTGTCA (double strand) [Cftr int1 56690 site]
[15]
  activity: 67.2 % indels

Source: patent US20200079826
